# Bridge positions count the residues as written; N and C are the ends. Square brackets hold non-standard residues; d marks the D form. Ends that are not written are not given here. Pro(cis-4-CF3) = O=C(O)[C@@H]1C[C@H](C(F)(F)F)CN1; Oic = O=C(O)[C@@H]1C[C@@H]2CCCC[C@@H]2N1; Nva(3-Et) = CCC(CC)[C@H](N)C(=O)O; NMeI = CC[C@H](C)[C@H](NC)C(=O)O; tBuAla = CC(C)(C)C[C@H](N)C(=O)O; Chg = N[C@H](C(=O)O)C1CCCCC1; NMeC = CN[C@@H](CS)C(=O)O; NMeA = CN[C@@H](C)C(=O)O; Orn = NCCC[C@H](N)C(=O)O; Nva = CCC[C@H](N)C(=O)O; Abu = CC[C@H](N)C(=O)O; Sar = CNCC(=O)O
# T1: recombinant rat MASP1 active protease (amino acids 302-704, C-terminal His Tag) (rat, UniProt Q8CHN8 302-704)
# T1 sequence: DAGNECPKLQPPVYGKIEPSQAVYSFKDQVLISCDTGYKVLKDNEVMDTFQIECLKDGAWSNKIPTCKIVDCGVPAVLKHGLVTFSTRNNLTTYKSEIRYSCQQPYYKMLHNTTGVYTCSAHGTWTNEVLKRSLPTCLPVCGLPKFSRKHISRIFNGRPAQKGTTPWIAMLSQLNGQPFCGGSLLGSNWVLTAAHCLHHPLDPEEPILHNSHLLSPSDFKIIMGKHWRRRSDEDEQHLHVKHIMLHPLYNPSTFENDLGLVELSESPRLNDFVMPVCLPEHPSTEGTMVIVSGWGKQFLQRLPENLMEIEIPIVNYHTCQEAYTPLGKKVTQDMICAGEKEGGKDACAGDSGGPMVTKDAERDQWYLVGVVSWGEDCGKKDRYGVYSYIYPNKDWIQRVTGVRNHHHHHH
# B1: Example 182: YIC+SRS-((tBu)A)-PPI-((N-Me)C)+I-NH2 (peptide)
# peptide: YICSRS[tBuAla]PPI[NMeC]I-NH2
# modifications: disulfide 3-11; N-terminus assumed
# SMILES: CC[C@H](C)[C@H](NC(=O)[C@@H]1CSSC[C@H](NC(=O)[C@@H](NC(=O)[C@@H](N)Cc2ccc(O)cc2)[C@@H](C)CC)C(=O)N[C@@H](CO)C(=O)N[C@@H](CCCNC(=N)N)C(=O)N[C@@H](CO)C(=O)N[C@@H](CC(C)(C)C)C(=O)N2CCC[C@H]2C(=O)N2CCC[C@H]2C(=O)N[C@@H]([C@@H](C)CC)C(=O)N1C)C(N)=O
# B2: Example 210: AIC+SRS-((tBu)A)-PPIC+IDD-OH (peptide)
# peptide: AICSRS[tBuAla]PPICIDD-OH
# modifications: disulfide 3-11; N-terminus assumed
# SMILES: CC[C@H](C)[C@H](NC(=O)[C@H](C)N)C(=O)N[C@H]1CSSC[C@@H](C(=O)N[C@H](C(=O)N[C@@H](CC(=O)O)C(=O)N[C@@H](CC(=O)O)C(=O)O)[C@@H](C)CC)NC(=O)[C@H]([C@@H](C)CC)NC(=O)[C@@H]2CCCN2C(=O)[C@@H]2CCCN2C(=O)[C@H](CC(C)(C)C)NC(=O)[C@H](CO)NC(=O)[C@H](CCCNC(=N)N)NC(=O)[C@H](CO)NC1=O
# B3: Example 223: WIC+SRS-((tBu)A)-PPI-((N-Me)C)+I-NH2 (peptide)
# peptide: WICSRS[tBuAla]PPI[NMeC]I-NH2
# modifications: disulfide 3-11; N-terminus assumed
# SMILES: CC[C@H](C)[C@H](NC(=O)[C@@H]1CSSC[C@H](NC(=O)[C@@H](NC(=O)[C@@H](N)Cc2c[nH]c3ccccc23)[C@@H](C)CC)C(=O)N[C@@H](CO)C(=O)N[C@@H](CCCNC(=N)N)C(=O)N[C@@H](CO)C(=O)N[C@@H](CC(C)(C)C)C(=O)N2CCC[C@H]2C(=O)N2CCC[C@H]2C(=O)N[C@@H]([C@@H](C)CC)C(=O)N1C)C(N)=O
# B4: Example 222: AIC+SRSLPP-(Chg)-C+IPD-OH (peptide)
# peptide: AICSRSLPP[Chg]CIPD-OH
# modifications: disulfide 3-11; N-terminus assumed
# SMILES: CC[C@H](C)[C@H](NC(=O)[C@H](C)N)C(=O)N[C@H]1CSSC[C@@H](C(=O)N[C@H](C(=O)N2CCC[C@H]2C(=O)N[C@@H](CC(=O)O)C(=O)O)[C@@H](C)CC)NC(=O)[C@H](C2CCCCC2)NC(=O)[C@@H]2CCCN2C(=O)[C@@H]2CCCN2C(=O)[C@H](CC(C)C)NC(=O)[C@H](CO)NC(=O)[C@H](CCCNC(=N)N)NC(=O)[C@H](CO)NC1=O
# B5: Example 154: HIC+SRS-((tBu)A)-PPI-((N-Me)C)+I-NH2 (peptide)
# peptide: HICSRS[tBuAla]PPI[NMeC]I-NH2
# modifications: disulfide 3-11; N-terminus assumed
# SMILES: CC[C@H](C)[C@H](NC(=O)[C@@H]1CSSC[C@H](NC(=O)[C@@H](NC(=O)[C@@H](N)Cc2c[nH]cn2)[C@@H](C)CC)C(=O)N[C@@H](CO)C(=O)N[C@@H](CCCNC(=N)N)C(=O)N[C@@H](CO)C(=O)N[C@@H](CC(C)(C)C)C(=O)N2CCC[C@H]2C(=O)N2CCC[C@H]2C(=O)N[C@@H]([C@@H](C)CC)C(=O)N1C)C(N)=O
# B6: Example 181: FIC+SRS-((tBu)A)-PPI-((N-Me)C)+I-NH2 (peptide)
# peptide: FICSRS[tBuAla]PPI[NMeC]I-NH2
# modifications: disulfide 3-11; N-terminus assumed
# SMILES: CC[C@H](C)[C@H](NC(=O)[C@@H]1CSSC[C@H](NC(=O)[C@@H](NC(=O)[C@@H](N)Cc2ccccc2)[C@@H](C)CC)C(=O)N[C@@H](CO)C(=O)N[C@@H](CCCNC(=N)N)C(=O)N[C@@H](CO)C(=O)N[C@@H](CC(C)(C)C)C(=O)N2CCC[C@H]2C(=O)N2CCC[C@H]2C(=O)N[C@@H]([C@@H](C)CC)C(=O)N1C)C(N)=O
# B7: Example 216: (Nva)-IC+SRSLPPIC+IPD-NH2 (peptide)
# peptide: [Nva]ICSRSLPPICIPD-NH2
# modifications: disulfide 3-11; N-terminus assumed
# SMILES: CCC[C@H](N)C(=O)N[C@H](C(=O)N[C@H]1CSSC[C@@H](C(=O)N[C@H](C(=O)N2CCC[C@H]2C(=O)N[C@@H](CC(=O)O)C(N)=O)[C@@H](C)CC)NC(=O)[C@H]([C@@H](C)CC)NC(=O)[C@@H]2CCCN2C(=O)[C@@H]2CCCN2C(=O)[C@H](CC(C)C)NC(=O)[C@H](CO)NC(=O)[C@H](CCCNC(=N)N)NC(=O)[C@H](CO)NC1=O)[C@@H](C)CC
# B8: Example 209: AIC+SRSLPP-((S)-2-amino-3-ethyl-pentanoic acid)-C+IPD-NH2 (peptide)
# peptide: AICSRSLPP[Nva(3-Et)]CIPD-NH2
# modifications: disulfide 3-11; N-terminus assumed
# SMILES: CCC(CC)[C@@H]1NC(=O)[C@@H]2CCCN2C(=O)[C@@H]2CCCN2C(=O)[C@H](CC(C)C)NC(=O)[C@H](CO)NC(=O)[C@H](CCCNC(=N)N)NC(=O)[C@H](CO)NC(=O)[C@@H](NC(=O)[C@@H](NC(=O)[C@H](C)N)[C@@H](C)CC)CSSC[C@@H](C(=O)N[C@H](C(=O)N2CCC[C@H]2C(=O)N[C@@H](CC(=O)O)C(N)=O)[C@@H](C)CC)NC1=O
# B9: Example 128: AIC+SRS-((tBu)A)-P-((4-CF3)P)-I-((N-Me)C)+IPD-NH2 (peptide)
# peptide: AICSRS[tBuAla]P[Pro(cis-4-CF3)]I[NMeC]IPD-NH2
# modifications: disulfide 3-11; N-terminus assumed
# SMILES: CC[C@H](C)[C@H](NC(=O)[C@H](C)N)C(=O)N[C@H]1CSSC[C@@H](C(=O)N[C@H](C(=O)N2CCC[C@H]2C(=O)N[C@@H](CC(=O)O)C(N)=O)[C@@H](C)CC)N(C)C(=O)[C@H]([C@@H](C)CC)NC(=O)[C@@H]2C[C@H](C(F)(F)F)CN2C(=O)[C@@H]2CCCN2C(=O)[C@H](CC(C)(C)C)NC(=O)[C@H](CO)NC(=O)[C@H](CCCNC(=N)N)NC(=O)[C@H](CO)NC1=O
# B10: Example 230: (Abu)-IC+SRSLPPIC+IPD-NH2 (peptide)
# peptide: [Abu]ICSRSLPPICIPD-NH2
# modifications: disulfide 3-11; N-terminus assumed
# SMILES: CC[C@H](N)C(=O)N[C@H](C(=O)N[C@H]1CSSC[C@@H](C(=O)N[C@H](C(=O)N2CCC[C@H]2C(=O)N[C@@H](CC(=O)O)C(N)=O)[C@@H](C)CC)NC(=O)[C@H]([C@@H](C)CC)NC(=O)[C@@H]2CCCN2C(=O)[C@@H]2CCCN2C(=O)[C@H](CC(C)C)NC(=O)[C@H](CO)NC(=O)[C@H](CCCNC(=N)N)NC(=O)[C@H](CO)NC1=O)[C@@H](C)CC
# B11: Example 231: AIC+SRS-((tBu)A)-P-(Oic)-I-((N-Me)C)+IPD-OH (peptide)
# peptide: AICSRS[tBuAla]P[Oic]I[NMeC]IPD-OH
# modifications: disulfide 3-11; N-terminus assumed
# SMILES: CC[C@H](C)[C@H](NC(=O)[C@H](C)N)C(=O)N[C@H]1CSSC[C@@H](C(=O)N[C@H](C(=O)N2CCC[C@H]2C(=O)N[C@@H](CC(=O)O)C(=O)O)[C@@H](C)CC)N(C)C(=O)[C@H]([C@@H](C)CC)NC(=O)[C@@H]2C[C@@H]3CCCC[C@@H]3N2C(=O)[C@@H]2CCCN2C(=O)[C@H](CC(C)(C)C)NC(=O)[C@H](CO)NC(=O)[C@H](CCCNC(=N)N)NC(=O)[C@H](CO)NC1=O
# B12: Example 169: (Abu)-IC+SRSLPP-(Chg)-C+IPD-NH2 (peptide)
# peptide: [Abu]ICSRSLPP[Chg]CIPD-NH2
# modifications: disulfide 3-11; N-terminus assumed
# SMILES: CC[C@H](N)C(=O)N[C@H](C(=O)N[C@H]1CSSC[C@@H](C(=O)N[C@H](C(=O)N2CCC[C@H]2C(=O)N[C@@H](CC(=O)O)C(N)=O)[C@@H](C)CC)NC(=O)[C@H](C2CCCCC2)NC(=O)[C@@H]2CCCN2C(=O)[C@@H]2CCCN2C(=O)[C@H](CC(C)C)NC(=O)[C@H](CO)NC(=O)[C@H](CCCNC(=N)N)NC(=O)[C@H](CO)NC1=O)[C@@H](C)CC
# B13: Example 225: (Orn)-IC+SRSLPP-(Chg)-C+IPD-OH (peptide)
# peptide: [Orn]ICSRSLPP[Chg]CIPD-OH
# modifications: disulfide 3-11; N-terminus assumed
# SMILES: CC[C@H](C)[C@H](NC(=O)[C@@H](N)CCCN)C(=O)N[C@H]1CSSC[C@@H](C(=O)N[C@H](C(=O)N2CCC[C@H]2C(=O)N[C@@H](CC(=O)O)C(=O)O)[C@@H](C)CC)NC(=O)[C@H](C2CCCCC2)NC(=O)[C@@H]2CCCN2C(=O)[C@@H]2CCCN2C(=O)[C@H](CC(C)C)NC(=O)[C@H](CO)NC(=O)[C@H](CCCNC(=N)N)NC(=O)[C@H](CO)NC1=O
# B14: Example 175: ((N-Me)A)-IC+SRS-((tBu)A)-PPI-((N-Me)C)+IPD-NH2 (peptide)
# peptide: [NMeA]ICSRS[tBuAla]PPI[NMeC]IPD-NH2
# modifications: disulfide 3-11; N-terminus assumed
# SMILES: CC[C@H](C)[C@H](NC(=O)[C@H](C)NC)C(=O)N[C@H]1CSSC[C@@H](C(=O)N[C@H](C(=O)N2CCC[C@H]2C(=O)N[C@@H](CC(=O)O)C(N)=O)[C@@H](C)CC)N(C)C(=O)[C@H]([C@@H](C)CC)NC(=O)[C@@H]2CCCN2C(=O)[C@@H]2CCCN2C(=O)[C@H](CC(C)(C)C)NC(=O)[C@H](CO)NC(=O)[C@H](CCCNC(=N)N)NC(=O)[C@H](CO)NC1=O
# B15: Example 186: (Orn)-IC+SRS-((tBu)A)-PPIC+I-NH2 (peptide)
# peptide: [Orn]ICSRS[tBuAla]PPICI-NH2
# modifications: disulfide 3-11; N-terminus assumed
# SMILES: CC[C@H](C)[C@H](NC(=O)[C@@H]1CSSC[C@H](NC(=O)[C@@H](NC(=O)[C@@H](N)CCCN)[C@@H](C)CC)C(=O)N[C@@H](CO)C(=O)N[C@@H](CCCNC(=N)N)C(=O)N[C@@H](CO)C(=O)N[C@@H](CC(C)(C)C)C(=O)N2CCC[C@H]2C(=O)N2CCC[C@H]2C(=O)N[C@@H]([C@@H](C)CC)C(=O)N1)C(N)=O
# Biological target: T1, recombinant rat MASP1 active protease …
# Experiment: cell-based or functional assay
row,rat MASP1 IC50,Binder
1,13 nM,B1
2,19 nM,B2
3,120 nM,B3
4,240 nM,B4
5,72 nM,B5
6,130 nM,B6
7,240 nM,B7
8,260 nM,[Sar]ICSRSLPPICIPD-NH2 (disulfide 3-11; also: HCl salt) [Example 228: ((N-Me)G)-IC+SRSLPPIC+IPD-NH2 (HCl salt)]
9,330 nM,B8
10,35 nM,B9
11,370 nM,B10
12,38 nM,B11
13,370 nM,B12
14,300 nM,G[NMeI]CSRSLPPICIPD-NH2 (disulfide 3-11; also: HCl salt) [Example 205: G-((N-Me)I)-C+SRSLPPIC+IPD-NH2 (HCl salt)]
15,230 nM,B13
16,28 nM,B14
17,380 nM,B15
